Results on two molecules are retold here after US20250082727A1, “CXCL14-BASED COMPOSITIONS AND METHOD FOR ENHANCING CARTILAGE REGENERATION” (FAR EASTERN MEMORIAL HOSPITAL, priority 2023, published 2025).

For one test, the system named is ADSC pellets. Kind of test: Alcian blue staining of ADSC pellets. Type of test: cell-based. On the procedure: (§1) To obtain a 3D pellet culture, 1×10^5 MSCs were centrifuged at 1200 rpm for 3 min in polypropylene tubes and cultured for 1 day. To induce chondrogenesis, the pelleted cells were cultured in DMEM-HG (Gibco, cat. no. 121000) containing 1% ITS-Premix (Corning, cat. no. 354352), 1% penicillin streptomycin (Gibco, cat. no. 15240), 1 mM sodium pyruvate (Gibco, cat. no. 11360070), 0.35 mM proline (Sigma-Aldrich, cat. no. P5607), 10 ng/mL TGF-β1 (SinoBio, cat. no. 10804-HNAC), 0.17 mM ascorbic acid 2-phosphate (Sigma-Aldrich, cat. no. A8960), and 100 nM dexamethasone (Sigma-Aldrich, cat. no. D4902). After induction, the chondrogenic differentiation results were evaluated on days 1, 7, 14, and 21.
(§2) To further verify the presence of chondrogenic proteins in response to CXCL14-P treatment, ADSCs were analyzed during chondrogenesis using biomarkers such as SOX9, Collagen type II, COMP, and CXCR4. On the third day of differentiation, flow cytometry was used to assess these specific chondrogenic markers. […] ADSCs were monitored until day 7, with cellular uptake of FAM-CXCL14-P observed using fluorescence microscopy, the results were shown in FIG. 7E.

A further test relates to 3D ADSC spheroids. Description: Immunofluorescence staining of chondrogenic proteins in 3D ADSC spheroids. Type of test: cell-based. The conditions noted are these: 3D culture. The protocol: MSC spheroids were fixed with 4% paraformaldehyde (PFA) (PH 7.2) in PBS for 30 minutes at room temperature. The samples were then washed with PBS to remove the PFA. Next, the spheroids were carefully transferred into ice-cold methanol and incubated at −40° C. for 25 minutes. Following fixation, the spheroids were treated with 1 mg/mL sodium borohydride to clean them, and then washed with PBS. After washing, the spheroids were incubated in a blocking solution containing 10% normal rabbit serum and 1x PBS with 0.1% sodium azide for 6 hours or overnight. The samples were then incubated with primary antibodies against Collagen type II (ab34712, Abcam), SOX9 (ab185966, Abcam), COMP (sc-374660, Santa Cruz), and Aggrecan (MA3-16888, Invitrogen) for 24 hours at 4° C. Subsequently, the samples were incubated with Alexa Fluor 488-, Alexa Fluor 555-, or Alexa Fluor 647-conjugated secondary antibodies for 1 hour at room temperature. Fluorescence images were acquired using a Leica SP8 STED confocal microscope.

The subject of another test is human ADSCs. Description: Flow cytometry of chondrogenic markers in ADSCs. The conditions noted are these: third day of differentiation. Type of test: cell-based. The protocol:
as §2
In general terms: In flow cytometry, cells or beads pass a laser one at a time.

A further test deals with ADSC. Kind of test: Real-time PCR of chondrogenic genes in treated ADSCs. Type of test: cell-based, human. The protocol: as §1
To identify functional peptide sequences within the CXCL14 protein that enhance chondrogenesis, an CXCL14 peptide (CXCL14-P), which has the amino acid sequence set forth in SEQ ID NO: 2, was used for interacting with CXCR4. […]
MSC-EVs have been reported to have potential for tissue repair; however, naive EVs lack the enhanced capacity to stimulate chondrogenesis and cartilage repair. […] On day 7, ADSCs treated with CXCL14-P-MSC-EVs were analyzed for the expression of SOX9, COL2A1, ACAN, COMP, SOSTDC1, and ITGB1 genes […] using real-time PCR.
(In general: Real-time PCR tracks product formation cycle by cycle.)

The subject of test [1] is CXCL14, SOX9, COL2A1, and ACAN mRNA expressions. Kind of test: Real-time PCR of chondrogenic genes under TGF-b stimulation during chondrogenesis. Type of test: cell-based. The conditions noted are these: under a low dose of TGF-β stimulation. The protocol: as §1
To better understand the molecular mechanism relating to the control of chondrogenesis modulated by CXCL14, the chondrogenic gene expressions were investigated during chondrogenesis.

For a further test, the system named is SOSTDC1. Kind of test: qPCR validation of SOSTDC1 after CXCL14 treatment during MSC chondrogenesis. Type of test: cell-based, human.
The next test has as its system ACLT-induced OA. Description: ACLT-induced knee OA mouse model (Safranin O, collagen II IHC, OARSI score). It counts as in vivo, C57BL/6 mice. The conditions noted are these: for OARSI score: ACLT mice, ACLT group 5.5, sham 0.17. The source says:
Surgical ACLT is the most commonly used for generating an animal model of OA. In this study, 8-week-old specific-pathogen-free C57BL/6 mice were subjected to ACLT and medial collateral ligament (MCL) transection for establishing an OA mouse model (n=6). First, the knee joints of the hind limbs were incised along the medial edge of the patellar ligament. After the joint capsule was exposed, the ACL and MCL were transected. […] After deparaffinization, the sections were stained with hematoxylin for 3 min and differentiated in 1% acid alcohol for 15 s, followed by staining in 0.02% aqueous fast green for 3 min and counterstaining with 0.1% Safranin O for 3 min. Finally, the sections were dehydrated in serial dilutions of ethanol, cleared in xylene, mounted onto glass slides by using neutral gum. Each stained area was observed under a light microscope and photographed using a photomicroscope equipped with a CCD video camera.

Test [2] has as its system IPFP-MSC from OA patients. Kind of test: Alcian blue staining of GAG during chondrogenesis of IPFP-MSC pellets. Type of test: cell-based, human. The conditions noted are these: day 3. On the procedure:
The IPFP tissue was washed repeatedly with Dulbecco's phosphate-buffered saline (Gibco, cat. no. 21600) containing 5% penicillin-streptomycin and amphotericin B solution (Gibco, cat. no. 15240). The tissue was minced and subjected to enzymatic digestion with 0.1% type I collagenase (Gibco, cat. no. 17100017) diluted in minimum essential medium α (α-MEM, Gibco, cat. no. 120000) and 1% bovine serum albumin (Sigma, cat. no. A7906) for 18 h at 37° C. After digestion, an equal amount of culture medium containing 10% fetal bovine serum was added to stop collagenase activity. The cell solution was sieved through a 100-μm mesh and centrifuged at 500 g for 5 min. The cell pellets were resuspended in culture medium (supplemented with 10% FBS, 1% penicillin-streptomycin, and amphotericin B) and seeded in a 10-cm culture dish. The medium was changed every 72 h until the cells reached 80%-90% confluence.
To obtain a 3D pellet culture, 1×10^5 MSCs were centrifuged at 1200 rpm for 3 min in polypropylene tubes and cultured for 1 day. […]
CXCL14 was analyzed to determine the stimulation of chondrogenesis and cartilage regeneration. CXCL14 was also analyzed to determine whether CXCL14 can induce chondrogenesis by using IPFP-MSC from OA patients treated with the recombinant protein CXCL14 and investigating the glycosaminoglycan (GAG) content by Alcian blue staining. […]

Take “CXCL14-P: CXCL14 peptide with the amino acid sequence SEQ ID NO: 2, produced through solid-phase peptide synthesis (ITTKSVSRYRGQEH; listed as Homo sapiens)”: in the test with ADSC pellets (ADSC pellets during chondrogenesis), the “GAG content (Alcian blue staining)” value was “higher GAG content”. The “GAG deposition (Alcian blue staining)” value in the test on ADSC pellets (ADSC pellets with varying ratios, day 7) was “increased GAG deposition”. For the same molecule, the “expressions of SOX9, Collagen type II, and Aggrecan (immunofluorescence)” value with 3D ADSC spheroids is given as “consistent results”. The “chondrogenic potential (SOX9, Collagen type II, COMP, CXCR4 markers)” value in the test with human ADSCs is reported as “enhances the chondrogenic potential”. In addition, the “CXCL14, SOX9, and COL2A1 gene expression” value in the test on ADSC (ADSC, real-time PCR on day 7, compared to CXCL14 protein) is given as “stronger chondrogenic gene expression compared to the protein”. In addition, in the test with ADSC (one-day treatment then fresh medium, real-time PCR on day 7), the “SOX9, COL2A1, COMP, and ACAN gene expression” value is “significantly induced”.

B1: CXCL14: small cytokine of the CXC chemokine family, Homo sapiens CXCL14, amino acid sequence SEQ ID NO: 1 (protein, listed as Homo sapiens)
chain: MSLLPRRAPPVSMRLLAAALLLLLLALYTARVDGSKCKCSRKGPKIRYSDVKKLEMKPKYPHCEEKMVIITTKSVSRYRGQEHCLHPKLQSTKRFIKWYNAWNEKRRVYEE
Take B1: the “CXCL14, SOX9, COL2A1, and ACAN gene expression” value in test [1] is “induce”. The “SOSTDC1 expression (qPCR)” value with SOSTDC1 (IPFP-MSCs from OA donors) and with SOSTDC1 (human ADSCs from non-OA donors) was “upregulated expression” each time. In addition, in the test on 3D ADSC spheroids, the “expressions of SOX9, Collagen type II, and Aggrecan (immunofluorescence)” value was “elevate”. For the same molecule, the OARSI score in the test on ACLT-induced OA (CXCL14 10 ng) was found to be 2.7; in the test on ACLT-induced OA (CXCL14 20 ng) it was 1. Further, the “cartilage repair, staining GAG content and type II collagen” value in the test with ACLT-induced OA (ACLT-induced OA model) is on record as “dose-dependent stimulated cartilage repair”. For the same molecule, the “GAG deposition (Alcian blue staining)” value in test [2] is reported as “increased”.
